# Measurements published in publication PMC3078985.
# Target: CLS (C-terminal fragment of human L-selectin with its entire transmembrane and cytoplasmic domains) (human)
# Experiment: AUC
substance,measurement,value
CLS (C-terminal fragment of human L-selectin with its entire transmembrane and cytoplasmic domains) (domain or fragment),pKd (molar fraction units),1.49
